In paper PMC7692627 one finds binding signal data, which are given here for 2 molecules.

The data set addresses His-P10 outer capsid protein (Rice black-streaked dwarf virus (RBSDV), UniProt D2Y4Q6 1-558). Nature of the data set: ELONA. Particulars: protein: recombinant; tags: N-terminal 6xHis (pET-15b).

B1: F17 (ssDNA)
DNA: TGACACCGTACCTGCTCTGCCGTAGTGATCCTCCTTAACAGTGACCTATAGATCGTTCGTCGTATTTGCTTTGACAATCCTTCTCAGATACTCTCCCGAAGCACGCCAGGGACTAT
For the molecule B1, the binding signal is 7.55 A450 ratio P10/BSA.

B2: R13 (ssDNA)
DNA: ATAGTCCCTGGCGTGCTTGCATGCTTGGCCCTGCACCGCCTTCGGTCTTTCGCCGACCTCGTCGTTTATTCTATCGGGTTATAAGGATAATGCGGGGTAGAGCAGGTACGGTGTCA
For the molecule B2, the binding signal was determined as 1.26 A450 ratio P10/BSA.
